# From patent publication US20030199077
# B1: Savinase® (subtilisin 309 from B. lentus, BLSAVI) (protein)
# chain: AQSVPWGISRVQAPAAHNRGLTGSGVKVAVLDTGISTHPDLNIRGGASFVPGEPSTQDGNGHGTHVAGTIAALNNSIGVLGVAPSAELYAVKVLGASGSGSVSSIAQGLEWAGNNGMHVANLSLGSPSPSATLEQAVNSATSRGVLVVAASGNSGAGSISYPARYANAMAVGATDQNNNRASFSQYGAGLDIVAPGVNVQSTYPGSTYASLNGTSMATPHVAGAAALVKQKNPSWSNVQIRNHLKNTATSLGSTNLYGSGLVNAEAATR
# Target: T1, trypsin inhibitor type IV-0 (Ovo-inhibitor), Sigma T-1886 (UniProt P10184)
# T1 sequence: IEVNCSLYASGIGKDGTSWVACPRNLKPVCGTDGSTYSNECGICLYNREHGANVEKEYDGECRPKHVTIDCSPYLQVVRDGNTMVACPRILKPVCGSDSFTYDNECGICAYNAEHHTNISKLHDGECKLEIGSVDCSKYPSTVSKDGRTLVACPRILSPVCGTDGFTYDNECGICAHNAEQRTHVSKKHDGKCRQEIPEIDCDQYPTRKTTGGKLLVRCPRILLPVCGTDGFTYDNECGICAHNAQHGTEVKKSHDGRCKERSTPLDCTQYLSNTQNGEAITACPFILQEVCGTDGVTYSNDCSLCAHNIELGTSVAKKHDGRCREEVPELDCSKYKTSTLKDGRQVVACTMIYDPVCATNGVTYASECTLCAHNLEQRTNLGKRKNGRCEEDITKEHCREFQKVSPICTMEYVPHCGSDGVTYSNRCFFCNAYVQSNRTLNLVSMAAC
row,Molecule,Residual Activity (%)
1,Savinase variant S99SD+S99A+P129PD,50
2,Savinase variant S99SD+M222S,25
3,Savinase variant S99SD+S99A+S216SP,29.2
4,Savinase variant S99SD+N76D+A194P+A230V,18.4
5,Savinase variant S99SD+S99A+P131T,35.6
6,Savinase variant S99SN,19
7,Savinase variant S99SD+S99A+D42DN,69.2
8,Savinase variant A98AI+A98G+S99H+G100S+S101A,22
9,Savinase variant A98AT+Y167A+R170S+A194P,88
10,Savinase variant S99SR+S99T,67.7
11,Savinase variant S99SQ+S99T,25
12,Savinase variant S99SD+S99A+P129PR,21
13,Savinase variant S99SD+S99A,27.3
14,Savinase variant S99SD,25
15,Savinase variant S99SD+S99A+L217F+A228V+A230V,12
16,Savinase variant S99SD+S99A+T143K,23
17,Savinase variant S99SD+S99A+A133E,39
18,Savinase variant S99SD+S99A+S216SDP,35
19,Savinase variant S99SD+S99A+L217LP,97
20,Savinase variant S99SE,27

# Target: T2, trypsin inhibitor type IV-0 (Ovo-inhibitor), Sigma T-1886, P10184
# T2 chain: T1 sequence
row,Molecule,Residual Activity (%)
1,B1,<5
